Where a chain is given by its changes, count along the chain named. Numbers in names are those of the source. Blank lines part the entries; values can stand above or below the binder they belong to.
Tests used:
[1] = target: T1, pSae2 λ (dephosphorylated) (Saccharomyces cerevisiae, UniProt P46946 1-345); assay: EMSA; lambda phosphatase-treated; 2 mM Mg2+; 25 mM Tris-acetate pH 7.5, 1 mM DTT, 2 mM Mg acetate, 0.1 mg/ml BSA, 1 nM DNA, 30 C; 1 mM ATP with MRX; 30 nM streptavidin where indicated; native PAGE in TBE; conditions: protein: recombinant; tags: C-terminal His; N-terminal MBP cleaved with PreScission; label: 3' 32P-cordycepin; blunt before 3' labeling
T1 sequence: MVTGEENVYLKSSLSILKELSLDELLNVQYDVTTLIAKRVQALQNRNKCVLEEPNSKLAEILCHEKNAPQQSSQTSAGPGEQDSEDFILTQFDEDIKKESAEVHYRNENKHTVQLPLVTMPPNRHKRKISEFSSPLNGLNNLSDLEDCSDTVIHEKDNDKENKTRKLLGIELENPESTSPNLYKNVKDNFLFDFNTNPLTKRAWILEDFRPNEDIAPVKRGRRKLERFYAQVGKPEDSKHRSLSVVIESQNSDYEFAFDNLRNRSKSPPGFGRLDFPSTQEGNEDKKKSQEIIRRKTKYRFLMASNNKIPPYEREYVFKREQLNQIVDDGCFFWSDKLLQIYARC

[2] = target: the molecule itself; assay: SEC; Superose 6 10/300 GL, 50 mM Tris-HCl pH 7.5, 150 mM NaCl, 10% glycerol, 0.5 mM β-mercaptoethanol, 4 °C; ~75 μg of the Sae2 variant, mock-treated or treated with λ phosphatase for 90 min at 30 °C before loading; absorbance at 215 nm
[3] = target: T2, S. cerevisiae Mre11-Rad50-Xrs2 complex (S. cerevisiae, UniProt P32829 1-692; P12753 1-1312; P33301 1-854); assay: pull-down; MBP-tagged Sae2 on amylose resin (mock-treated or λ phosphatase-treated on the resin), 5 μg recombinant MRX, 1 h at 4 °C; wash 50 mM Tris-HCl pH 7.5, 2 mM EDTA, 80 mM NaCl, 0.2% NP40; eluted with 20 mM maltose; silver staining; conditions: both partners purified
T2 construct: Mre11, S. cerevisiae; Rad50, S. cerevisiae; Xrs2, S. cerevisiae; also called MRX; MRX complex; copies: + +
T2 sequence (P32829 whole entry, chain 1 of 3): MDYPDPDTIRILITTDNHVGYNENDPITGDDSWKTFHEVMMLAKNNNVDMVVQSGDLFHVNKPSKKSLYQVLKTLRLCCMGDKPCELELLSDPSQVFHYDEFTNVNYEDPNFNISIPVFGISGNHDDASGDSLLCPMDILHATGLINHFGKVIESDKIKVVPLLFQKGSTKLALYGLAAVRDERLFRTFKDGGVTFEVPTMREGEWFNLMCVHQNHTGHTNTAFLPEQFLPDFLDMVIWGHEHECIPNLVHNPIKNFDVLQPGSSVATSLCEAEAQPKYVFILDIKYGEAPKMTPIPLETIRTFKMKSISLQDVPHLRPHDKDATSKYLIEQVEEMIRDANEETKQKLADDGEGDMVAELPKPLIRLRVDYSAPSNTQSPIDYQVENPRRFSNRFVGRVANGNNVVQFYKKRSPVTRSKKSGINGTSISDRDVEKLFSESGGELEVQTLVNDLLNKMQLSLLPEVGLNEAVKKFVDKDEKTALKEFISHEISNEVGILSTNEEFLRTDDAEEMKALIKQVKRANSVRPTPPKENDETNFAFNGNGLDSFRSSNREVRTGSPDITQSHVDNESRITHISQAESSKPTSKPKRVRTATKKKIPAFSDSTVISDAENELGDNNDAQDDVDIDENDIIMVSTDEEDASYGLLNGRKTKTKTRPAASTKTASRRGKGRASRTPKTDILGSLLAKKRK
T2 sequence (P12753 whole entry, chain 2 of 3): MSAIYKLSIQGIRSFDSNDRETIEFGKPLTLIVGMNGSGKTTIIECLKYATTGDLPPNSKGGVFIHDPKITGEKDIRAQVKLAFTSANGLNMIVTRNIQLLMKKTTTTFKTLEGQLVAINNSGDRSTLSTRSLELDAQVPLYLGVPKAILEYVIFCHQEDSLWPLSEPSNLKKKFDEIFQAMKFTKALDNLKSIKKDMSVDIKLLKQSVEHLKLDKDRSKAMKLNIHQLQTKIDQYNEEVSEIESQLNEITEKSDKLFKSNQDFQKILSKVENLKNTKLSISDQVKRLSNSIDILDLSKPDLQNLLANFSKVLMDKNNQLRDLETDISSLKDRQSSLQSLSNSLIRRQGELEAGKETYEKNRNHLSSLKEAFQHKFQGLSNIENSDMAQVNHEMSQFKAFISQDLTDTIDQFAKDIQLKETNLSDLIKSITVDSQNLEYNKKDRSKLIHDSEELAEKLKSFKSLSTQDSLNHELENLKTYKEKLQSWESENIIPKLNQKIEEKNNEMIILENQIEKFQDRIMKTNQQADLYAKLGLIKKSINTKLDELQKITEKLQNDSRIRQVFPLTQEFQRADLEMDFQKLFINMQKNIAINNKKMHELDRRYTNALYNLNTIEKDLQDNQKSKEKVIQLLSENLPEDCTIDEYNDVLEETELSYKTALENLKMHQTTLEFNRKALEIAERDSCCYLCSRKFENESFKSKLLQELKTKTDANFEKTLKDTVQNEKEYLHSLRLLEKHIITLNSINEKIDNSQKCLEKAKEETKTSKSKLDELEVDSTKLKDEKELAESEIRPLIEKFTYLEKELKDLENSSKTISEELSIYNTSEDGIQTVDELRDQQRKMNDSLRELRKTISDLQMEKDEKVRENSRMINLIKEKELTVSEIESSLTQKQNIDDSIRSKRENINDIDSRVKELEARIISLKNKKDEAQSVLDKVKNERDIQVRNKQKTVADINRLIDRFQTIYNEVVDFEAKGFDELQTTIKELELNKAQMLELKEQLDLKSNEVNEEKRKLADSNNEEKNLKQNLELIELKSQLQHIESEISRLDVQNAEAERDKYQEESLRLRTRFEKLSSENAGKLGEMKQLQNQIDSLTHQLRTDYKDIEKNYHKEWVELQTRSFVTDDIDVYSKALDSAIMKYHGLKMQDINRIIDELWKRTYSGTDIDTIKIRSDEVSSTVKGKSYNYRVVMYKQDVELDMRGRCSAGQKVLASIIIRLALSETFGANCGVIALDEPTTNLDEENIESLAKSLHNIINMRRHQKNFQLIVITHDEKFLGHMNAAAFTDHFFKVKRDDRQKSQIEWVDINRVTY
T2 sequence (P33301 whole entry, chain 3 of 3): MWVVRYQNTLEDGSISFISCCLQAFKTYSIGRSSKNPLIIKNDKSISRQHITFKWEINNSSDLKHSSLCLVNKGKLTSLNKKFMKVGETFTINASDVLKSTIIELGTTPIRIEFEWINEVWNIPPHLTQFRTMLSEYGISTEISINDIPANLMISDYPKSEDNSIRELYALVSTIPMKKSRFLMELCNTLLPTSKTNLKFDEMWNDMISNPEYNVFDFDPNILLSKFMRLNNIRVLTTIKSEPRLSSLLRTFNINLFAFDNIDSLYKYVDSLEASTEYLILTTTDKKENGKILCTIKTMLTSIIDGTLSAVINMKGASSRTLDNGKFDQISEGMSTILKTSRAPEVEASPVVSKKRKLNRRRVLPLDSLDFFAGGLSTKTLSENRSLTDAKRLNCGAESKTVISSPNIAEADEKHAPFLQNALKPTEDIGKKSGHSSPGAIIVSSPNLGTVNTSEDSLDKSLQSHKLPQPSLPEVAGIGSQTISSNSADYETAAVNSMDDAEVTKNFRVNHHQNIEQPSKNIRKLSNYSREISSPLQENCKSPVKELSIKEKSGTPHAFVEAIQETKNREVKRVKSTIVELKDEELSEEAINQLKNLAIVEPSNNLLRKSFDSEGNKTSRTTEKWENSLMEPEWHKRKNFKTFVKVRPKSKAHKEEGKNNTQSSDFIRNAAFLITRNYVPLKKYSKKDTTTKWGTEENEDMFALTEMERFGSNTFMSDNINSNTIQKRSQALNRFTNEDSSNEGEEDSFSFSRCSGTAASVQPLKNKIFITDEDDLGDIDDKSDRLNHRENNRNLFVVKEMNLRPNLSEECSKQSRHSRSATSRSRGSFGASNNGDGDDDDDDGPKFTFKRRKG

[4] = target: the molecule itself; assay: atomic force microscopy (particle volume analysis); 50 nM pSae2 in 40 mM Hepes pH 7, 5 mM MgCl2, 25 mM NaCl, 0.1 mM TCEP deposited on mica, imaged in air, without DNA; molecular weight from a published standard curve

B1: 100 bp dsDNA (Bio100/Bio100c) (dsDNA)
DNA 1: GTAAGTGCCGCGGTGCGGGTGCCAGGGCGTGCCCTTGGGCTCCCCGGGCGCGTACTCCACCTCATAATCTTCTGCCATGGTCGTAGCAGCCTCCTGCATC
DNA 2: GATGCAGGAGGCTGCTACGACCATGGCAGAAGATTATGAGGTGGAGTACGCGCCCGGGGAGCCCAAGGGCACGCCCTGGCACCCGCACCGCGGCACTTAC
modifications: internal biotin-T in Bio100 (bold T; exact position not visible in the text)
binding result [1]: binds

B2: pSae2 S267A, expressed in the presence of phosphatase inhibitors (natural protein, S. cerevisiae, UniProt P46946 1-345, looked up)
chain: T1 sequence with S267A
modifications: phosphorylated (prepared with phosphatase inhibitors; sites not listed)
notes: Sae2, S. cerevisiae, point mutant made in the pFB-MBP-Sae2-his plasmid; not shown: MBP, N-terminal, cleaved
binding result [2]: binds

binding result [3]: binds
B3: full-length phosphorylated recombinant MBP-tagged pSae2 (mock-treated), on amylose resin (natural protein, S. cerevisiae, UniProt P46946 1-345, looked up)
chain: T1 sequence
modifications: phosphorylated (phosphatase inhibitors; mock-treated); sites not listed
notes: Sae2, S. cerevisiae, full-length polypeptide; The MBP tag was cleaved off only after elution of the complexes; also called MBP-tagged Sae2; MBP-Sae2-His; not shown: MBP, N-terminal, kept

B4: pSae2 S267E phosphomimicking variant, expressed in the presence of phosphatase inhibitors (natural protein, S. cerevisiae, UniProt P46946 1-345, looked up)
chain: T1 sequence with S267E
modifications: phosphorylated (prepared with phosphatase inhibitors; sites not listed)
notes: Sae2, S. cerevisiae, full-length polypeptide with S267E; not shown: MBP, N-terminal, cleaved
binding result [2]: binds

B5: pSae2 S267E dephosphorylated with λ phosphatase (natural protein, S. cerevisiae, UniProt P46946 1-345, looked up)
chain: T1 sequence with S267E
modifications: dephosphorylated with λ phosphatase
notes: Sae2, S. cerevisiae, full-length polypeptide with S267E; also called pSae2 S267E λ; not shown: MBP, N-terminal, cleaved
binding result [2]: binds

binding result [3]: binds
B6: full-length recombinant MBP-tagged Sae2 dephosphorylated with λ phosphatase on amylose resin (natural protein, S. cerevisiae, UniProt P46946 1-345, looked up)
chain: T1 sequence
modifications: dephosphorylated with λ phosphatase on the resin
notes: Sae2, S. cerevisiae, full-length polypeptide; also called non-phosphorylated MBP-tagged Sae2; not shown: MBP, N-terminal, kept

B7: hyperphosphorylated recombinant Sae2 (pSae2), expressed and purified with phosphatase inhibitors (natural protein, S. cerevisiae, UniProt P46946 1-345, looked up)
chain: T1 sequence
modifications: hyperphosphorylated (phosphatase inhibitors in culture and lysis buffer); estimate of 17 phosphorylation sites; sites not listed in the text
notes: Sae2, S. cerevisiae, full-length polypeptide (ends at residue 345 by the legend's 170-345); Tetramer by AFM volume analysis; also called phosphorylated Sae2; wt pSae2; not shown: MBP, N-terminal, cleaved
stoichiometry N [4]: 4

B8: pSae2 ΔC95, lacking 95 C-terminal residues (domain or fragment, S. cerevisiae, UniProt P46946 1-250, looked up)
chain: MVTGEENVYLKSSLSILKELSLDELLNVQYDVTTLIAKRVQALQNRNKCVLEEPNSKLAEILCHEKNAPQQSSQTSAGPGEQDSEDFILTQFDEDIKKESAEVHYRNENKHTVQLPLVTMPPNRHKRKISEFSSPLNGLNNLSDLEDCSDTVIHEKDNDKENKTRKLLGIELENPESTSPNLYKNVKDNFLFDFNTNPLTKRAWILEDFRPNEDIAPVKRGRRKLERFYAQVGKPEDSKHRSLSVVIESQ
modifications: phosphorylated (named pSae2; sites not listed)
notes: Sae2, S. cerevisiae, lacking the 95 C-terminal residues; source: Sf9, purified as pSae2; not shown: MBP, N-terminal, cleaved
binding result [2]: binds

Reference: article PMC6167383, “Regulatory control of DNA end resection by Sae2 phosphorylation” (Nature Communications, 2018)
